Source: patent US20230149462A1 (JUNO THERAPEUTICS, published 2023)

Biological target: T1, human BCMA (human, UniProt Q02223 1-54, limits assumed)
T1 construct: also called B-cell maturation antigen; human BCMA polypeptide
T1 sequence: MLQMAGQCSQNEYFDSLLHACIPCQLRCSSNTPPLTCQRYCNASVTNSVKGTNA
Experiment: CLIPS peptide epitope mapping (Pepscan)
Protocol: Epitopes recognized, e.g., specifically bound by exemplary anti-BCMA scFv clones, were determined based on full discontinuous epitope mapping by Chemical Linkage of Peptides onto Scaffolds (CLIPS; Pepscan Presto BV, Lelystad, The Netherlands; see, e.g., Timmerman et al., (2007) J. Mol. Recognit. 20: 283-329). […] In some aspects, such antibodies recognize a non-linear or linear epitope including residues of such peptide of SEQ ID NO: 160, and in some aspects recognize a non-linear epitope further including residues of CIPCQLR (set forth in SEQ ID NO:159), […] and/or SVTNSVK (set forth in SEQ ID NO:161).

B1: BCMA-23 scFv (scFv)
scFv: EVQLVESGGGLVKPGGSLRLSCAASGFTFSDYYMSWIRQAPGKGLEWVSYISSSGSTIYYADSVKGRFTISRDNAKNSLYLQMNSLRAEDTAVYYCAKVDGDYTEDYWGQGTLVTVSSGGGGSGGGGSGGGGSQSALTQPASVSGSPGQSITISCTGSSSDVGKYNLVSWYQQPPGKAPKLIIYDVNKRPSGVSNRFSGSKSGNTATLTISGLQGDDEADYYCSSYGGSRSYVFGTGTKVTVL
  binding result: binds

B2: BCMA-25 scFv (scFv)
scFv: EVQLVQSGGGLVQPGRSLRLSCTASGFTFGDYAMSWFRQAPGKGLEWVGFIRSKAYGGTTEYAASVKGRFTISRDDSKSIAYLQMNSLKTEDTAVYYCAAWSAPTDYWGQGTLVTVSSGGGGSGGGGSGGGGSDIQMTQSPAFLSASVGDRVTVTCRASQGISNYLAWYQQKPGNAPRLLIYSASTLQSGVPSRFRGTGYGTEFSLTIDSLQPEDFATYYCQQSYTSRQTFGPGTRLDIK
  binding result: binds

B3: BCMA-26 scFv (scFv)
scFv: EVQLVESGGGLVKPGGSLRLSCAASGFTFSDYYMSWIRQAPGKGLEWVSYISSSGSTIYYADSVKGRFTISRDNAKNSLYLQMNSLRAEDTAVYYCAKVDGPPSFDIWGQGTMVTVSSGGGGSGGGGSGGGGSSYVLTQPPSVSVAPGQTARITCGANNIGSKSVHWYQQKPGQAPMLVVYDDDDRPSGIPERFSGSNSGNTATLTISGVEAGDEADYFCHLWDRSRDHYVFGTGTKLTVL
  binding result: binds

B4: BCMA-52-scFv-mFc (Fc fusion)
chain: SYELTQPPSASGTPGQRVTMSCSGTSSNIGSHSVNWYQQLPGTAPKLLIYTNNQRPSGVPDRFSGSKSGTSASLAISGLQSEDEADYYCAAWDGSLNGLVFGGGTKLTVLGSRGGGGSGGGGSGGGGSLEMAEVQLVQSGAEVKKPGESLKISCKGSGYSFTSYWIGWVRQMPGKGLEWMGIIYPGDSDTRYSPSFQGHVTISADKSISTAYLQWSSLKASDTAMYYCARYSGSFDNWGQGTLVTVSS
notes: not shown: mFc portion named in the label
  binding result: binds

B5: BCMA-55-scFv (scFv)
scFv: QSALTQPASVSASPGQSIAISCTGTSSDVGWYQQHPGKAPKLMIYEDSKRPSGVSNRFSGSKSGNTASLTISGLQAEDEADYYCSSNTRSSTLVFGGGTKLTVLGSRGGGGSGGGGSGGGGSLEMAEVQLVQSGAEMKKPGASLKLSCKASGYTFIDYYVYWMRQAPGQGLESMGWINPNSGGTNYAQKFQGRVTMTRDTSISTAYMELSRLRSDDTAMYYCARSQRDGYMDYWGQGTLVTVSS
notes: also called BCMA-55-scFV-mFc
  binding result: binds
